Numbering of substitutions follows the chain as printed.
B1: Xanthobacter autotrophicus acetone carboxylase γ subunit (enzyme)
chain: MAYTRSKIVDLVDGKIDPDTLHQMLSTPKDPERFVTYVEILQERMPWDDKIILPLGPKLFIVQQKVSKKWTVRCECGHDFCDWKDNWKLSARVHVRDTPQKMEEIYPRLMAPTPSWQVIREYFCPECGTLHDVEAPTPWYPVIHDFSPDIEGFYQEWLGLPVPERADA
notes: acetone carboxylase gamma subunit, Xanthobacter autotrophicus; also called XaAC γ; AC gamma subunit; source: E. coli, purified as the complex (His-NTA, Q-sepharose)
B2: Xanthobacter autotrophicus acetone carboxylase β subunit (enzyme)
chain: MNVPVGHLRNVQVLGIDAGGTMTDTFFVDQDGDFVVGKAQSTPQNEALGLIASSEDGLANWGMSLHEALAQLQTGVYSGTAMLNRVVQRKGLKCGLIVNRGMEDFHRMGRAVQSHLGYAYEDRIHLNTHRYDPPLVPRHLTRGVVERTDMIGTQVIPLREDTARDAARDLIAADAEGIVISLLHSYKNPENERRVRDIVLEEVEKSGKKIPVFASADYYPVRKETHRTNTTILEGYAAEPSRQTLSKISNAFKERGTKFDFRVMATHGGTISWKAKELARTIVSGPIGGVIGAKYLGEVLGYKNIACSDIGGTSFDVALITQGEMTIKNDPDMARLVLSLPLVAMDSVGAGAGSFIRLDPYTRAIKLGPDSAGYRVGVCWKESGIETVTISDCHMVLGYLNPDNFLGGAVKLDRQRSVDAIKAQIADPLGLSVEDAAAGVIELLDSDLRDYLRSMISGKGYSPASFVCFSYGGAGPVHTYGYTEGLGFEDVIVPAWAAGFSAFGCAAADFEYRYDKSLDINMPTETPDTDKEKAAATLQAAWEELTKNVLEEFKLNGYSADQVTLQPGYRMQYRGQLNDLEIESPLAQAHTAADWDQLTDAFNATYGRVYAASARSPELGYSVTGAIMRGMVPIPKPKIPKEPEEGETPPESAKIGTRKFYRKKRWVDAQLYHMESLRPGNRVMGPAVIESDATTFVVPDGFETWLDGHRLFHLREV
notes: acetone carboxylase beta subunit, Xanthobacter autotrophicus; also called XaAC β; AC beta subunit; source: E. coli, purified as the complex (His-NTA, Q-sepharose)

Assays:
[1] = target: T1, acetone carboxylase (XaAC) (Xanthobacter versatilis, UniProt Q8RM03+Q8RM04, Q8RM03:E89A); test: differential scanning fluorimetry, SYPRO orange; type: binding; details: 10 mM AMP; 100 mM Tris, 100 mM KCl, pH 7.6; absolute Tm, not a shift
T1 construct: gene acxA; recombinant from E. coli, His-NTA then Q-sepharose; 360 kDa α2β2γ2 heterohexamer with Mn(II); ATP/AMP site in beta subunit, Mn(II) site in alpha subunit; with Acetone carboxylase gamma subunit
T1 sequence (Q8RM03 whole entry E89A, one chain of several): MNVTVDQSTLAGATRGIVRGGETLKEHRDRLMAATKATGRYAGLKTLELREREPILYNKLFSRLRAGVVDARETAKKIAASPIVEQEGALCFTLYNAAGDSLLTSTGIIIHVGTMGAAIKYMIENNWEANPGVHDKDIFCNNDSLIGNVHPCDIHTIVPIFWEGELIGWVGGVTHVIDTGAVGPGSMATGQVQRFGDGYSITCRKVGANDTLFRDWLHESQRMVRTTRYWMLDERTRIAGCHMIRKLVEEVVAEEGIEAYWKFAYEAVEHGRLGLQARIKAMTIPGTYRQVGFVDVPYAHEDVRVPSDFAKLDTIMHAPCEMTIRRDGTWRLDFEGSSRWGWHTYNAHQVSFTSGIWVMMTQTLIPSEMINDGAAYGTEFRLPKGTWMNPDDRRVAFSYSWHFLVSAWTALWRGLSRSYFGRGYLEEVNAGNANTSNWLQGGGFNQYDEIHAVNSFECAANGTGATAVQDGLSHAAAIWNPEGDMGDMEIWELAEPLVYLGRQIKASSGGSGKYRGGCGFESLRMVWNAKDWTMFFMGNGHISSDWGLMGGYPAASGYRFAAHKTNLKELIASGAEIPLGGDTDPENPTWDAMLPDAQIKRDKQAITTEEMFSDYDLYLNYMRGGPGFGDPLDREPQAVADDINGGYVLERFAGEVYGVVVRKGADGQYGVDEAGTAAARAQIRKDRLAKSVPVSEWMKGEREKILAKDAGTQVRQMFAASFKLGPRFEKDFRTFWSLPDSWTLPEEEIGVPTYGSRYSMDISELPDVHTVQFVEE

[2] = target: T2, acetone carboxylase (XaAC) (Xanthobacter versatilis, UniProt Q8RM03+Q8RM04, Q8RM03:E89D); test: X-band EPR of active-site Mn(II); type: binding; details: 10 mM AMP, 1 mM MgCl2; 50 mM Tris, pH 7.6, 150 mM NaCl; 12 K
T2 construct: gene acxA; recombinant from E. coli, His-NTA then Q-sepharose; 360 kDa α2β2γ2 heterohexamer with Mn(II); ATP/AMP site in beta subunit, Mn(II) site in alpha subunit; with Acetone carboxylase gamma subunit

[3] = target: T3, acetone carboxylase (XaAC) (Xanthobacter versatilis, UniProt Q8RM03+Q8RM04); test: differential scanning fluorimetry, SYPRO orange; type: binding; set-up: gene acxA; recombinant from E. coli, His-NTA then Q-sepharose; 360 kDa α2β2γ2 heterohexamer with Mn(II); ATP/AMP site in beta subunit, Mn(II) site in alpha subunit; with Acetone carboxylase gamma subunit; details: 10 mM AMP; 100 mM Tris, 100 mM KCl, pH 7.6; absolute Tm, not a shift
T3 sequence (Q8RM03 whole entry, one chain of several): as the sequence (Q8RM03 whole entry E89A, one chain of several) above, with A89E counted along it

[4] = target: T3, acetone carboxylase (XaAC); set-up: gene acxA; details: only tested together with AMP (10 mM AMP-acetate), 1 mM MgCl2, pH 7.6; Mn(II) site
[5] = target: T4, Xanthobacter autotrophicus acetone carboxylase α subunit, αE89D variant (Xanthobacter autotrophicus, UniProt Q8RM03 1-776, αE89D); test: SEC + native gel or EMSA; complexes co-purified from E. coli lysate (His-NTA, then Q-sepharose), stored in 50 mM Tris pH 7.6, 150 mM NaCl, 10% glycerol, then tested by size exclusion chromatography and native gel for integrity; details: both partners purified
T4 construct: acetone carboxylase alpha subunit, Xanthobacter autotrophicus, glutamate 89 substituted by aspartate; The PDB entries are of the wild-type parent; also called E89D XaAC; E89D AC; source: E. coli, purified as the complex (His-NTA, Q-sepharose)
T4 sequence: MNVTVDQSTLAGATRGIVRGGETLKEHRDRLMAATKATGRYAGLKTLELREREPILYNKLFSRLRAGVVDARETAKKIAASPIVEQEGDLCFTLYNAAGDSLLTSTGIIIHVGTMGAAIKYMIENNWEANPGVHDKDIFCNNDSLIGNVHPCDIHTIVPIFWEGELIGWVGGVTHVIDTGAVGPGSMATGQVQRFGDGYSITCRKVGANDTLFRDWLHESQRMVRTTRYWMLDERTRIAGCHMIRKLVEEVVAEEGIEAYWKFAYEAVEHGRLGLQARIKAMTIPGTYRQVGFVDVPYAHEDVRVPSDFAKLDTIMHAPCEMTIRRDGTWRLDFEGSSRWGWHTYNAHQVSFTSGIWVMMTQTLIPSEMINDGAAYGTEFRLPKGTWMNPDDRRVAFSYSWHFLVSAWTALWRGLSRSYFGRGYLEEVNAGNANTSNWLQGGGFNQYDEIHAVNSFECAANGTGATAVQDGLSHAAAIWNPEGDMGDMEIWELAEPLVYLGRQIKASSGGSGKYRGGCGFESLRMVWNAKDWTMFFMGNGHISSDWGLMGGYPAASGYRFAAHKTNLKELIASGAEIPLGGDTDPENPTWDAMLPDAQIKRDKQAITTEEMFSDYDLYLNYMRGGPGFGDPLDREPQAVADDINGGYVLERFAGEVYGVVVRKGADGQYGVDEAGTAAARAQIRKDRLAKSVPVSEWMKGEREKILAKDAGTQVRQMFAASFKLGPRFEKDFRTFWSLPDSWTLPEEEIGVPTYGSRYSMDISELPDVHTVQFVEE

[6] = target: T5, Xanthobacter autotrophicus acetone carboxylase α subunit (Xanthobacter autotrophicus, UniProt Q8RM03 1-776); test: as above; details: both partners purified
T5 construct: acetone carboxylase alpha subunit, Xanthobacter autotrophicus; holds the Mn(II) site (H150, D153, H175, E89); A His-NTA column was used, so one subunit probably carries a His tag; also called XaAC α; AC alpha subunit; source: E. coli, purified as the complex (His-NTA, Q-sepharose)
T5 sequence: T4 sequence with D89E

[7] = target: T6, Xanthobacter autotrophicus acetone carboxylase α subunit, αE89A variant (Xanthobacter autotrophicus, UniProt Q8RM03 1-776, αE89A); test: as above; details: both partners purified
T6 construct: acetone carboxylase alpha subunit, Xanthobacter autotrophicus, glutamate 89 substituted by alanine; The PDB entries are of the wild-type parent; also called E89A XaAC; E89A AC; source: E. coli, purified as the complex (His-NTA, Q-sepharose)
T6 sequence: T4 sequence with D89A

Molecule	Tm [1] [°C]	X-band EPR of active-site Mn(II) [2]	Tm [3] [°C]	peptide-level and intact-protein HDX-MS [4]	binding result [5]	binding result [6]	binding result [7]
Nc1ncnc2c1ncn2[C@@H]1O[C@H](COP(=O)(O)O)[C@@H](O)[C@H]1O [AMP]	76 ± 0.4	αE89D and the WT AC respond similarly to AMP binding	76.5 ± 0.5				
CC(=O)O [acetate]				when AMP and acetate were both present, seven of the eight peptides displayed opposite exchange patterns			
B1					binds	binds	binds
B2					binds	binds	binds

Source: article PMC12250083 (International Journal of Molecular Sciences, 2025)
